Results from paper doi:10.1101/2024.05.17.594765.
Where a chain is given by its changes, count along the chain named. Numbers in names are those of the source.

T1: C-terminally Halo-tagged full-length zyxin (zyxin-Halo), Q15942
T1 chain: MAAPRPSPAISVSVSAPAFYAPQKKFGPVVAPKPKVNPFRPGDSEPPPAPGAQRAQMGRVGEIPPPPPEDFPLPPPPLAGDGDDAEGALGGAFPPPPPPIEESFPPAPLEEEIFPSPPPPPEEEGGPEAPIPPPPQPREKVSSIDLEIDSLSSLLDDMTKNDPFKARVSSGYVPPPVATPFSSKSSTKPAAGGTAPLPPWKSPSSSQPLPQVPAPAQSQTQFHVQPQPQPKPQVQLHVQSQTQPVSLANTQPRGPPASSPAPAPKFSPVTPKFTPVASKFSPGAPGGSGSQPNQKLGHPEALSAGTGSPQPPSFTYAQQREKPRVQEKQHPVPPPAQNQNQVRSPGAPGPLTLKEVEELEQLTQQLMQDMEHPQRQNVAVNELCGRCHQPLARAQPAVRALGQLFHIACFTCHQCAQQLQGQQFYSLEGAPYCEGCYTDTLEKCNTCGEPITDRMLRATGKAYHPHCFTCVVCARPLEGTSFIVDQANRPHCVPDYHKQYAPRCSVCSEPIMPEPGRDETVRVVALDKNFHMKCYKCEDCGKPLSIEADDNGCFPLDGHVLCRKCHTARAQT

T2: zyxin mutant deficient in recruiting VASP, F(75, 97, 108, 118)A, Halo-tagged, Q15942
T2 chain: T1 chain with F71A, F93A, F104A, F114A

B1: C-terminally Halo-tagged VASP (VASP-Halo), P50552 L226A; I231A; L235A; R273E; R274E; R275E; K276E (protein)
chain: SETVICSSRATVMLYDDGNKRWLPAGTGPQAFSRVQIYHNPTANSFRVVGRKMQPDQQVVINCAIVRGVKYNQATPNFHQWRDARQVWGLNFGSKEDAAQFAAGMASALEALEGGGPPPPPALPTWSVPNGPSPEEVEQQKRQQPGPSEHIERRVSNAGGPPAPPAGGPPPPPGPPPPPGPPPPPGLPPSGVPAAAHGAGGGPPPAPPLPAAQGPGGGGAGAPGAAAAAAGAKARKVSKQEEASGGPTAPKAESGRSGGGGLMEEMNAMLAEEEEATQVGEKTPKDESANQEEPEARVPAQSESVRRPWEKNSTTLPRMKSSSSVTTSETQPCTPSSSDYSDLQRVKQELLEEVKKELQKVKEEIIEAFVQELRKRGSP
B2: m6; m1 VASP:L226A; VASP:I231A; VASP:L235A; VASP:R273E; VASP:R274E; VASP:R275E; VASP:K276E; zyxin:F75A; zyxin:F97A; zyxin:F108A; zyxin:F118A (protein)
chain: B1 chain

Legend:
[1] = molecular target: T1, C-terminally Halo-tagged full-length …; assay: force reconstitution TIRF assay; conditions: chain shown with the change; images were acquired every 1 s; parent: est. 490; read off a plot
[2] = molecular target: T2, zyxin mutant deficient in recruiting …; assay: force reconstitution TIRF assay; conditions: chain shown with the change; images were acquired every 1 s; parent: est. 490; read off a plot

Binder	other: Number of Binding Events (mean) [1]	other: Number of Binding Events (mean) [2]
B1	180	–
B2	–	30
